Target: the molecule itself
Assay: SEC; Superdex 200 10/300 GL, 4 °C, 100 mM triethanolamine pH 7.5, 300 mM NaCl, 5% glycerol, 1% n-octyl-β-D-glucopyranoside, 1 mM TCEP; column calibrated with Bio-Rad gel filtration standard; oligomer size assumes a globular protein

B1: Δ46AtDGAT3 (Arabidopsis thaliana acyl-CoA:diacylglycerol acyltransferase 3 lacking the putative chloroplast transit peptide) (domain or fragment, UniProt Q9C5W0 47-360, looked up)
chain: CNNEFADKGHVNYYIEPTRCGEEKEKVKVMEKEKKALKKKAKVLKSLSKNLDMFSSIGFGLDPEAGLVGEIQTKTISEATEILVKQLEQLKAEEKILKKQRKEEKAKAKAMKKMTEMDSESSSSSESSDSDCDKGKVVDMSSLRNKAKPVLEPLQPEATVATLPRIQEDAISCKNTSEALQIALQTSTIFPSMANPGQTLKTVEAVSVVGLPLNRVEVCMGGKCKRSGGALLLDEFQRAMTGFEGSAVACKCMGKCRDGPNVRVVKETDAVMTDSVRTPSKTLCVGVGLQDVETIVTSFFDEECSREGLGSVSY
notes: AtDGAT3 (At1g48300), Arabidopsis thaliana, 360-residue protein of the revised TAIR annotation (GenBank AEE32272); the 46 N-terminal residues (putative chloroplast transit peptide predicted by ChloroP 1.1) removed; calculated mass of the His-tagged protein 35.4 kDa; Cloned NdeI/XhoI into pET-32b(+), in frame with a C-terminal 6xHis tag; the NdeI site of the forward primer supplies a start …
stoichiometry N: 3
